Results from paper PMC5372246, “Co-production of hydrogen and ethanol from glucose in Escherichia coli by activation of pentose-phosphate pathway through deletion of phosphoglucose isomerase (pgi) and overexpression of glucose-6-phosphate dehydrogenase (zwf) and 6-phosphogluconate dehydrogenase (gnd)” (Biotechnology for Biofuels, 2017).

Substrate: NC(=O)c1ccc[n+]([C@@H]2O[C@H](COP(=O)(O)OP(=O)(O)OC[C@H]3O[C@@H](n4cnc5c(N)ncnc54)[C@H](OP(=O)(O)O)[C@@H]3O)[C@@H](O)[C@H]2O)c1
Assay: purified protein
Assay type: biochemical, Escherichia coli
Conditions: co-substrate 6-phosphogluconate, general assay: Tris-HCl pH 7.5, 1 mM MgCl2, 30 °C

B1: Gnd (GE), 6-phosphogluconate dehydrogenase (Escherichia coli K-12) (protein)
chain: MSKQQIGVVGMAVMGRNLALNIESRGYTVSIFNRSREKTEEVIAENPGKKLVPYYTVKEFVESLETPRRILLMVKAGAGTDAAIDSLKPYLDKGDIIIDGGNTFFQDTIRRNRELSAEGFNFIGTGVSGGEEGALKGPSIMPGGQKEAYELVAPILTKIAAVAEDGEPCVTYIGADGAGHYVKMVHNGIEYGDMQLIAEAYSLLKGGLNLTNEELAQTFTEWNNGELSSYLIDITKDIFTKKDEDGNYLVDVILDEAANKGTGKWTSQSALDLGEPLSLITESVFARYISSLKDQRVAASKVLSGPQAQPAGDKAEFIEKVRRALYLGKIVSYAQGFSQLRAASEEYNWDLNYGEIAKIFRAGCIIRAQFLQKITDAYAENPQIANLLLAPYFKQIADDYQQALRDVVAYAVQNGIPVPTFSAAVAYYDSYRAAVLPANLIQAQRDYFGAHTYKRIDKEGVFHTEWLD
notes: full-length, C-terminal His-tag, Ni-NTA purified from E. coli, 51 kDa on SDS-PAGE
Km: 40 µM
